This note sets out measurements from the Immune Epitope Database (IEDB).

Assay [1] addresses HLA-A*24:02. Put plainly: IEDB peptide-MHC binding, purified MHC/competitive/fluorescence; filed as Kd, often an IC50 or EC50 that approximates it; ≥ and ≤ were set here for values at or beyond the usual limits of such assays.
The target in assay [2] is HLA-A*24:02. Put plainly: IEDB peptide-MHC binding, purified MHC/competitive/fluorescence; ≥ and ≤ were set here for values at or beyond the usual limits of such assays.
Assay [3] concerns the target HLA-B*08:01. Described as above.
The next assay concerns the target HLA-A*32:15. Put plainly: IEDB peptide-MHC binding, purified MHC/competitive/fluorescence; filed as Kd, often an IC50 or EC50 that approximates it; ≥ and ≤ were set here for values at or beyond the usual limits of such assays. The note with it: source organism: Shigella flexneri 5 str. 8401.
In the next assay the target is HLA-A*31:01. The description is as above. The note with it: source organism: Shigella flexneri 5 str. 8401.
The target of a further assay is HLA-B*45:06. The description is as above. The settings on record: source organism: Shigella flexneri 5 str. 8401.
For another assay, the target named is HLA-B*83:01. Described as above. The settings on record: source organism: Shigella flexneri 5 str. 8401.
Assay [4] deals with HLA-A*02:01. The description is as above.
For assay [5], the target named is HLA-B*08:01. Described as above. The settings on record: source organism: Shigella flexneri 5 str. 8401.
The target of the next assay is HLA-B*15:42. The description is as above. The note with it: source organism: Shigella flexneri 5 str. 8401.
In another assay the target is HLA-A*02:06. Described as above. The settings on record: source organism: Orthomarburgvirus marburgense.
Another assay concerns the target HLA-B*15:17. The description is as above. The note with it: source organism: Orthomarburgvirus marburgense.
The target in another assay is HLA-B*35:01. The assay is described as above. The note with it: source organism: Orthomarburgvirus marburgense.
For assay [6], the target named is HLA-A*68:02. The description is as above. The note with it: source organism: Orthomarburgvirus marburgense.
The target in assay [7] is HLA-A*01:01. The description is as above. The settings on record: source organism: Orthomarburgvirus marburgense.
In the next assay the target is HLA-A*26:01. Put plainly: IEDB peptide-MHC binding, purified MHC/direct/fluorescence; filed as Kd, often an IC50 or EC50 that approximates it; ≥ and ≤ were set here for values at or beyond the usual limits of such assays. The settings on record: source organism: Ravn virus - Ravn, Kenya, 1987.
The target in a further assay is HLA-B*18:01. The description is as above. The note with it: source organism: Marburg virus - Musoke, Kenya, 1980.
A further assay addresses HLA-B*38:01. The assay is described as above. The note with it: source organism: Ravn virus - Ravn, Kenya, 1987.
For a further assay, the target named is HLA-B*27:05. Described as above. The note with it: source organism: Marburg virus - Musoke, Kenya, 1980.
For another assay, the target named is HLA-B*57:01. Described as above. The note with it: source organism: Marburg virus - Musoke, Kenya, 1980.
The next assay concerns the target HLA-B*58:01. The description is as above. The note with it: source organism: Marburg virus - Musoke, Kenya, 1980.
The next assay deals with HLA-B*40:01. Described as above. The settings on record: source organism: Marburg virus - Musoke, Kenya, 1980.
The target in the next assay is HLA-C*03:03. The description is as above. The note with it: source organism: Orthomarburgvirus marburgense.
Assay [8] has as its target HLA-B*15:01. The assay is described as above. The settings on record: source organism: Marburg virus - Musoke, Kenya, 1980.
In the next assay the target is HLA-B*07:02. The description is as above. The settings on record: source organism: Marburg virus - Musoke, Kenya, 1980.
Assay [9] addresses HLA-B*08:01. Described as above. The settings on record: source organism: Ravn virus - Ravn, Kenya, 1987.
A further assay addresses HLA-B*39:01. The assay is described as above. The note with it: source organism: Marburg virus - Musoke, Kenya, 1980.
In another assay the target is HLA-B*46:01. The description is as above. The note with it: source organism: Marburg virus - Musoke, Kenya, 1980.
Another assay deals with HLA-B*48:01. Described as above. The note with it: source organism: Marburg virus - Musoke, Kenya, 1980.
Assay [10] deals with HLA-A*02:01. Put plainly: IEDB peptide-MHC binding, purified MHC/competitive/fluorescence; ≥ and ≤ were set here for values at or beyond the usual limits of such assays. The settings on record: source organism: Variola virus.
Another assay deals with HLA-C*04:01. Put plainly: IEDB peptide-MHC binding, purified MHC/direct/fluorescence; filed as Kd, often an IC50 or EC50 that approximates it; ≥ and ≤ were set here for values at or beyond the usual limits of such assays.
Assay [11] deals with HLA-B*15:01. Put plainly: IEDB peptide-MHC binding, purified MHC/competitive/fluorescence; ≥ and ≤ were set here for values at or beyond the usual limits of such assays. The settings on record: source organism: Zaire ebolavirus.
For another assay, the target named is HLA-A*26:02. Put plainly: IEDB peptide-MHC binding, purified MHC/competitive/fluorescence; filed as Kd, often an IC50 or EC50 that approximates it; ≥ and ≤ were set here for values at or beyond the usual limits of such assays. The settings on record: source organism: Orthomarburgvirus marburgense.
Assay [12] addresses HLA-B*15:01. Described as above. The settings on record: source organism: Orthomarburgvirus marburgense.
Another assay has as its target HLA-B*15:09. Put plainly: IEDB peptide-MHC binding, purified MHC/direct/fluorescence; filed as Kd, often an IC50 or EC50 that approximates it; ≥ and ≤ were set here for values at or beyond the usual limits of such assays. The note with it: source organism: Ravn virus - Ravn, Kenya, 1987.
The target in assay [13] is HLA-A*02:01. Described as above. The note with it: source organism: Marburg virus - Musoke, Kenya, 1980.
For a further assay, the target named is HLA-A*69:01. The description is as above. The note with it: source organism: Marburg virus - Musoke, Kenya, 1980.
The target in assay [14] is HLA-A*68:02. The assay is described as above. The settings on record: source organism: Marburg virus - Musoke, Kenya, 1980.
The target in assay [15] is HLA-A*01:01. The assay is described as above. The settings on record: source organism: Marburg virus - Musoke, Kenya, 1980.
In the next assay the target is HLA-B*08:02. The description is as above. The note with it: source organism: Ravn virus - Ravn, Kenya, 1987.
Setting [16] is: source organism: Vaccinia virus Copenhagen.
[17] abbreviates: source organism: Shigella flexneri 5 str. 8401.
[18] abbreviates: source organism: Salmonella enterica subsp. enterica serovar Typhi str. CT18.
The mark [19] stands for this setting: source organism: Zaire ebolavirus.
Setting [20] is: source organism: Rickettsia typhi str. Wilmington.

Broadly, the Kd is a measure of binding affinity in units of concentration. Read a low Kd as a tighter complex. Regarding VMPLLVWLF, the Kd with HLA-A*24:02 [1] (source organism: Campylobacter jejuni subsp. jejuni NCTC 11168 = ATCC 700819) is 0.0029 µM.

For orientation: IC50 means the concentration at which inhibition is half-maximal. Read a low IC50 as higher potency. With GYFLKIKVT, the results for the concentration for half-maximal inhibition (IC50) with HLA-A*24:02 [2] (setting [16]) and in the assay with HLA-B*08:01 [3] (setting [16]) were at least 215 µM and at least 231 µM, respectively.

As to IIMRRFFYF, the dissociation constant (Kd) with HLA-A*24:02 [1] (setting [17]) is at most 0.0001 µM; in the assay with HLA-A*32:15, 0.0677 µM; with HLA-A*31:01, 0.0012 µM; with HLA-B*45:06, at least 5 µM; with HLA-B*83:01, at least 5 µM; with HLA-A*02:01 [4] (setting [17]), 0.0329 µM. Moreover, the results for the Kd with HLA-B*08:01 [5] and with HLA-B*15:42 were 0.0222 µM and at least 5 µM, respectively.

On to ISDPLTSGL, for which the Kd with HLA-A*02:06 is 0.0206 µM; in the assay with HLA-B*15:17, 0.0132 µM; with HLA-B*35:01 it was at least 20 µM; with HLA-A*02:01 [4] (source organism: Orthomarburgvirus marburgense), 0.0681 µM; with HLA-A*68:02 [6], at least 20 µM; with HLA-A*01:01 [7] it was 1.03 µM. Also, the equilibrium dissociation constant (Kd) was at least 20 µM in the assay with HLA-A*26:01; at least 20 µM in the assay with HLA-B*18:01; 5.03 µM in the assay with HLA-B*38:01; at least 20 µM with HLA-B*27:05; at least 20 µM in the assay with HLA-B*57:01; 0.415 µM with HLA-B*58:01. The equilibrium dissociation constant (Kd) with HLA-B*40:01, with HLA-C*03:03, in the assay with HLA-B*15:01 [8], with HLA-B*07:02, with HLA-B*08:01 [9] and with HLA-B*39:01 was at least 20 µM each time. Further, the Kd with HLA-B*46:01 and with HLA-B*48:01 was at least 20 µM throughout.

On to LSLPRIALV, for which the IC50 in the assay with HLA-A*02:01 [10] is 0.617 µM; in the assay with HLA-B*08:01 [3] (source organism: Variola virus), at least 285 µM.

As for IYASRPLDF, the Kd is at most 0.0001 µM with HLA-A*24:02 [1] (setting [18]) and at least 20 µM with HLA-C*04:01 (setting [18]).

Regarding DRFKRTSFF, the IC50 with HLA-A*24:02 [2] (setting [19]) is 1.22 µM; with HLA-B*15:01 [11], at least 181 µM; with HLA-B*08:01 [3] (setting [19]) it was 5.43 µM.

As for IYYWTAWLI, the Kd was 0.0017 µM with HLA-A*24:02 [1] (setting [20]) and at least 20 µM with HLA-C*04:01 (setting [20]).

For the sequence IHLDKGGQF, the Kd with HLA-B*15:17 was at least 20 µM; in the assay with HLA-B*35:01 it was at least 20 µM; with HLA-A*26:02, at least 20 µM; with HLA-B*15:01 [12], at least 20 µM; in the assay with HLA-A*26:01 it was at least 20 µM; with HLA-B*15:09, 7.14 µM. The dissociation constant (Kd) in the assay with HLA-B*18:01, with HLA-B*38:01, in the assay with HLA-B*27:05, with HLA-B*57:01, in the assay with HLA-B*58:01 and with HLA-B*40:01 was at least 20 µM in each case. For the same sequence, the dissociation constant Kd with HLA-A*02:01 [13], in the assay with HLA-B*07:02, with HLA-B*08:01 [9], in the assay with HLA-A*69:01, with HLA-A*68:02 [14] and with HLA-B*39:01 was at least 20 µM throughout. The equilibrium dissociation constant (Kd) with HLA-A*01:01 [15], with HLA-B*08:02, in the assay with HLA-B*46:01 and in the assay with HLA-B*48:01 was at least 20 µM each time.
